{
  "source": "patent WO2005095988A2",
  "key": {"[1]": {"target": "Bacillus anthracis protective antigen (PA) (Bacillus anthracis) (UniProt P13423)", "sequence (P13423 30-764 limits assumed)": "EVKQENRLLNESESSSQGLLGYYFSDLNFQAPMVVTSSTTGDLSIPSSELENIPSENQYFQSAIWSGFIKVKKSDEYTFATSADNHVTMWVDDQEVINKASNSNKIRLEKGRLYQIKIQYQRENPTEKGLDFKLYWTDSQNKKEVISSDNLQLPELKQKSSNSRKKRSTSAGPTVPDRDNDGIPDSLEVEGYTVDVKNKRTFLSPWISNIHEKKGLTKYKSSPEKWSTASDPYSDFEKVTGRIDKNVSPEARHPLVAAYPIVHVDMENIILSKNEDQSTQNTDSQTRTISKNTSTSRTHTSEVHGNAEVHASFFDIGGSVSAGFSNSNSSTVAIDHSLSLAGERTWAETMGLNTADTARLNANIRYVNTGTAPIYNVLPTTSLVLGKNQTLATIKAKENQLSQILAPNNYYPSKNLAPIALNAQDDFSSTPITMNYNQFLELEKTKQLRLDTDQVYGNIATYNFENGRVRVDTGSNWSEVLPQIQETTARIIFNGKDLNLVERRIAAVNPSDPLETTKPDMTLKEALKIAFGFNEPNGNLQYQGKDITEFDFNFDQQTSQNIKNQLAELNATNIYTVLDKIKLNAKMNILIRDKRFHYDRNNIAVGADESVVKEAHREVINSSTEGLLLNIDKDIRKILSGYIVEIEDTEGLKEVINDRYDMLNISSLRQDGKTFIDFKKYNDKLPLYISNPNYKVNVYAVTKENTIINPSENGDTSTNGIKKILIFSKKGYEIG"}, "[2]": {"target": "Bacillus anthracis protective antigen (PA) (Bacillus anthracis) (UniProt P13423)", "remark": "listed apart in the source"}},
  "data": [
    {"substance": "NlpA-[14B7 scFv], anchored on the E. coli inner membrane (APEx)", "values": [
      {"measurement": "fold higher mean fluorescence intensity compared to controls", "setting": "[1]", "value": 9, "unit": "fold"},
      {"measurement": "mean fluorescence", "setting": "[2]", "value": 30}
    ]},
    {"substance": "NlpA-[M18 scFv], anchored on the E. coli inner membrane (APEx)", "values": [
      {"measurement": "mean fluorescence", "setting": "[2]", "value": 250}
    ]}
  ]
}
